From the DeepSol protein solubility set

Experiment: soluble on expression in E. coli; label from the status in PepcDB or PDB records

Sequence: MIIEERKNHELNLESIDRDLRMENVRQSAEKLGWEHFARSVRRNLLEKRQTLDARTRLDVLGSLVFMKEHLPIDNDATIARKVQQLSEGLGEHCVFSTQNSGFSIRNPDVTIDIGVAEDQISTCKIGYFGQPLTDAPGALALMKNGEFSKLRDSITAILSSLPKEITLSEKNACKEAFRALDQLLIRDAADSSFTAINTGKYGFYAPRNELRSGRIYYVAEPVLIRLAEKEGKTKADASYLDLLPYIEISFFKHDKPSKLPVFTQTGEWSTFNDANVCICVRFNQGFLLSQQTIRKLSHIVPKSPLVRNYVNFYRYMTGRVGVKSNLKLLTQFPDEGDIQQQYQVDSKMLTKEDDVVAMEMYLSDFRDLSKLIETLRSEWKHASLWESILAICESSKGEQKEVNAVDMQLVLRRTEFFLQFDTDYGSMTMQIFEKSPSNYVVKTTSQITGESPSLDFDKMLTEKLNSTWSIPATLTFAITDLKCRINSVLNCVISFDSSSSSDKQHQNYWSISNNNTQLMQSAAQKSAAKCTKKKVTVLEVGPAIEPTQLVYTRENDEEFQGSLLSSFGEVDDYYVKTSTIGRTRPQPRPKREPNQLTSMDMMSAELDKSRHTMEGSMRDAQTSSFLDAARVRMKQSIGAAHAVGLASHQPPASPVAAAAAAPGGPMRHNSYPSGFEPPPSVAPYDFPADPSKKQRKQRAKKQPGEEPPAGRGKGGKKGRGAGAVGAAAAGGRKSAGGAGENPFGMDPMRPPMLQRSSSEQHNPNPHQMSQYQMQQYQQNQQFRMHQMQQQQQQQFQMQSPKNPLVPAYTDEDSDEECDPPPPPKPQVSTSSRMSSVPSHPPPPPQQLGNPMVGYPGMPLQSPNHLPLTPSPLSAPPKPFSPEQQHHFGMKMRETSYWKELERLETKPDVEKLKQQLSSSSSSSQAEASDPPSTSTEAQDPPKPSSSSAPPPPKKKLGLEAAISKIRGQQEQALQKQLQQQESVESELATPHPGSSGAPPLAPHQVNRARNLNDIFDDEADDSSPTADIKPSLQALQKPTDTSSQSTSSEPPPKKEPADEQPEREKEKLILKIPKMLKPVVDDRREDRKERDRDRDRDRDRDEDREKVRDKEDKAQREKDKKEKERERRRQRDRDRTEQKKSDREKEPSKKRKLEKKDEKEKDRREPERKKGKSDGKEYSKASTTSLIPTLSLKNFRIPKKDTVEEEKKDVKEEAPGPSSSTESKKEPPSAAPITRKESTTAPVAPAVQQQQQRKESFTALPSLPEQQQHHREPLLKKKPPLQPPPPPQMTGPPIGIYPGPPAPGNLPGSSRPSGNRKQPLPPPPPMIRGPPPDQMYRDRSGGGGGSMRGGFPPASHYHGGTSGVNKQVASYAQGLPPGMGPPVVKPHGNNYQASQWVRPPTHRDSSHSYHGMPSLGPPQLQREPPAPPPPQMIPLPKDPPVLREHPREHRAHRGGADDDGPDSPEEGTLRIDDE
- soluble on expression in E. coli: not soluble

Sequence: MDRQAIEKTAGHLRPLMPTPPEIGLILGSGLGVLADEIEEAVRIPYEDIPGFPVSTVEGHAGRLVYGRLEGATVVAMQGRFHYYEGYSLQEVTFPVRVMKALGVRELIVTNAAGGINERFQPGDFMIISDHINLLGTNPLIGPNDPELGPRFPDMTEAYSRRLRELAKETAARLGVRVHEGVYVANTGPSYETPAEIRMIRTLGGDAVGMSTVPEVIVARHGGIEVLGISCISNMAAGMSDAPLHHDEVVETAERVKTDFLRFVKAIVAEMAKSKRKR
- soluble on expression in E. coli: soluble

Sequence: MTAPLIRVSRKRTADPHDALILHTKRAKHGGNPLVFTLYKAAGNDLELNGARVLDLPTQEHGMELADEENPLGFVKDEAVGLVGEVEKNVKKPAEQVSLNGRLLQPVTDGGGAAAGSSDDVVYDYYAIHEKRGNPEVVGNLEQDIEGADFRFAKRDELDLGDEDDSDGPPADDEDDSNDEDNWRNDYPDEESYDEDSDNGDPYGISEPDHWHAGEEAYSDESFHRRLQNMDLNDERYEAFYEGDETDEDAD
- soluble on expression in E. coli: soluble

Sequence: MTLEKKEYGAPGFWPGSMIGRVHAFETPAPLTRAQLDRLRDEFFETRTEGHLEIWTAIRAASHAQEAGDDELAYAIITAVGILPAEVGPAGEGLGERIPFAEQPLDRLLGMICGCCFPAFTRYRTLERVYDQRGFLYETPKECIATPSNVLPDESTEASAR
- soluble on expression in E. coli: not soluble

Sequence: GPGSMSNSGCGLPGDVDPDLPLTPDGVTYHVACSSERLADRIILVGDPDRVKMVSTYLDAGSIVYEASHREIKVVTGAYHGVPVTVLSTGMGTDNVEIVMNEVHILKEYDTQKRRWRARVGDDTPADPLETPFDPSRVKLIRVGTCGTPNDAVQIGCLAITRYAVGMDNTCQYYDAPAVNHTVDVKEVLAKVQATSLGKVQVYATKAAPAITQGLVDACTALNRKVGVSEQQPYYVGTTCSGSGFYGCQGRSVGRFRGHLTVPHLTEELGDLRFNVSEGEQRVANIEMENSALCYLSNLLGYQAGTVCVVIARRSRTNRAFATPEQLAKGLSHAITIALETLIKE
- soluble on expression in E. coli: not soluble

Sequence: MAHHHHHHMKLNIAYPRNGTVKQFEISDEVLRRVQLQDYRLGNEVDGAIFGSEFKGYIFRLRGGSDKDGFPMVPGVLASSRVSLLVKRGAIGFNTFRGYQGERRRKNVRGCVLASDIALVNVTISKVGDQPIEGVTDTTAPRRLGP
- soluble on expression in E. coli: not soluble

Sequence: MSLNKNIKSLNLREKDPFLSREKQRYEHPLPSREWIIELLERKGVPSKIESLARELSITEDEYVFFERRLKAMARDGQVLINRRGAVCAADKLDLVKCRVEAHKDGFGFAVPLTPAKDGDFVLYERQMRGIMHGDIVTVRPAGMDRRGRREGTVLDIVERAQSKVVGRFYMDRGVAILEPEDKRLNQSIVLEPDGVARFKPESGQVIVGEIEVYPEQNRPAVAKIIEVLGDYADSGMEIEIAVRKHHLPHQFSEACAKAAKKIPVHVRKSDLKGRVDLRDLPLVTIDGETARDFDDAVFAEKVGRNYRLVVAIADVSHYVRPDDVIDADAQERSTSVYFPRRVIPMLPENLSNGICSLNPDVERLCMVCDMVVTYAGNIKEYRFYPAVMRSHARLTYNQVWKWISDGIDHPYKAQIDTLYKLFKILQKKRFERGAVEFESVETQMIFDDNGKIEKIVPVVRNDAHKLIEECMLAANVCAADFLLKNKHTALFRNHLGPTPEKLATLREQLGLLGLQLGGGDNPSPKDYAALVEQFKGRPDAELLQVMMLRSMQQAVYEPHCDGHFGLAYEAYAHFTSPIRRYPDLTVHRAIKAVLNQQTYTPKKSWQALGVHTSFCERRADDASRDVENWLKTYYMRDKVGEVFEGKISGMTSFGIFVTLDGIHIDGLVHISDLGEDYFNFRPEIMAIEGERSGIRFNMGDRVAVRVARADLDDGKIDFVLIAGGSGRGRKVKSSASAKPAGTAGKGKPKTAAEKKTARGGKVRGRGASAAAESRKKAKKPVPIKVKKRKGKSEGHHHHHH
- soluble on expression in E. coli: not soluble

Sequence: MGHHHHHHSHNQYPAELMRRFELYFQGPSSNKPRVIREVRADSVGKLVTVRGIVTRVSEVKPKMVVATYTCDQCGAETYQPIQSPTFMPLIMCPSQECQTNRSGGRLYLQTRGSRFIKFQEMKMQEHSDQVPVGNIPRSITVLVEGENTRIAQPGDHVSVTGIFLPILRTGFRQVVQGLLSETYLEAHRIVKMNKSEDDESGAGELTREELRQIAEEDFYEKLAASIAP
- soluble on expression in E. coli: not soluble

Sequence: MNRICELLGIEHPIISGGMVWCSGWKLASAVSNCGGLGLIGAGSMHPDNLEHHIRSCKAATDKPFGVNVPLLYPEMDKIMEIIMREHVPVVVTSAGSPKVWTAKLKAAGSKVIHV
- soluble on expression in E. coli: not soluble

Sequence: MRGEAGELAVSSGEIATGALSPEKQQEQELMGKLAATGKLPARPASSFLQKKLQQRKFFDSGDYAMDKSKAGTGLGSKPHPLAGGPPPAAPPVVAQRSPAPAATTPSPSASPISQQTNRPSSDRNSDDDNLQIPRPDTVPQRKASIINPSVHCKLSPAPHVQHHDAASPNATSE
- soluble on expression in E. coli: soluble

Sequence: MGSDKIHHHHHHMLNSIMEDKKELLKSLLRQIHEGRDVSELKEQFKDVLASISPLEIPLIEQELVKEGISTREIAKMCDIHVELFRESVEGAFSVEDIPEGHPLHTLFMENREIVKDAEMLALLANTLEREMKGEILEEMESVVAELIKVGHTHYNREEMLIFPYIERRGITAIPNVLWFKHDEIRAALRVLHRLLTTDTGERWEEHIKRVVEKAREVSSAMLDMVFRENNIFYPTLKVLLSEGEWRAIREQEEIIGYYKLKPAEWKSDAKPVHPYEIDTTITAEQLISLPEEVQNLLKGQLLKPDSYEVVREDDLRLDEGYLSQREINAIFKALPFDITFVDSNDRVRFFSGSDRIFARTPSVIGRRVHLCHPPRSVHIVDKILKAFRNGERDFAEFWINMGGRIIHIRYFAVRDEGEYLGTVEVVQDVTEIKRLEGEKRLLGWK
- soluble on expression in E. coli: not soluble

Sequence: MTIAQEPTALNFECETGNYHTFCPISCVAWLYQKIEDSFFLVIGTKTCGYFLQNAMGVMIFAEPRYAMAELEEGDISAQLNDYAELKRLCEQIKRDRNPSVIVWIGTCTTEIIKMDLEGLAPKLEGEIGIPIVVARANGLDYAFTQGEDTVLAAMAHRCPDKAPVAEAEKNLEHHHHHH
- soluble on expression in E. coli: soluble

Sequence: MSLVAVRSAHLNPDQQFELETWIASLTQEGKTAAKLTAVYRDCEQLLAGNPQGPLLLWRGREMIEILITLSMDRPTLVAALLFPIATSGVLDNESLEEGYGREVVKLIHGVEEMAAIGQLNVTMHGSEASAQVDNVRRMLLAMVDDFRCVVIKLAERICNLREVKNEPDEVRRVAAKECANIYAPLANRLGIGQLKWEIEDYAFRYQQPDTYKQIAKQLSERRIVREQYIRDFVSDLRAEMKQSGINAEVSGRPKHIYSIWRKMQKKSLAFDELFDVRAVRIIADKLQDCYAALGIVHTKYKHLPNEFDDYVANPKPNGYQSIHTVILGPEGKTIEIQIRTKQMHEESELGVAAHWKYKEGSSAARSGYDEKITWLRKLLDWQEEMSDSGEMLDELRSQVFDDRVYAFTPKGDVVDLPMGATPLDFAYHIHSEVGHRCIGAKVAGRIVPFTHKLQMGDQVEIITAKEPNPSRDWLNPSLGFVHSGRARAKINAWFRKQSREKNLEAGREILEIELAKIGANLKHAEAYALKRFNVNSVDEMYVGIGSGDLRINQIVNHINALVNKPTAEEEDKLALEKLQENKTLTPNRPHKDAVVVEGVDNLMTHLARCCQPIPGDEIRGYITQGRGISVHRSDCEQLEELSLHAPERIIDTVWGSGFVGSYLLTVRVEAMERSGLLKDITTLLANEKVKVASMKSRSDYKRQIIIMDFDLEVNNVEALARVSKRIEQIKDVMLVKRLGEGHHHHHH
- soluble on expression in E. coli: not soluble

Sequence: QAAVTDYYKTLHLFFISPEKGKEFERSTSIRRRVKAMPHGVNRLFSSLYYYYTLIQERATPRLQRLLDQLEADYPQNTIPETLRQHLRKDSRR
- soluble on expression in E. coli: not soluble

Sequence: MPKDNTWYTGAKLGWSQYSRENQLGAGAFGGYQVNPYVGFEMGYDWLGRMPRKAQGVQLTAKLGYPKLGTDDLDIYTRLGGMVWRADTSDKDGNGYISAAEASVSPVFAGGVEYVIRRRITPEIATRLEYQWTNNASDNGMLSLGVSYRFGQGEAA
- soluble on expression in E. coli: soluble

Sequence: MAHHHHHHMANSKFSYVKLFEEERKILLNCYFIVRIDGCDFKHFVKAHNYNKPNDIKGLNLMNECALDILKKFDDIDLCYGHSDEYSFLFNKSTKLWNRRYDKILTNVVSYFTSCFLYKWKNYFQKEMLYAPSFDARIVVYPNEKEIKDYFSWRQVDCHINTQYNECFWNLIRQANYTNDEAHKFLLTTQTKDKNELLFSRFNINYNNLPEIFRRGTIIIRNKTFQKKNEALGTIYNNDTANNIDDNNNNNNNNNNTFNDNNDIENFEKLKKECLPKFIISHENLVSEKFWDKYDYIFKKKKDLEKK
- soluble on expression in E. coli: not soluble

Sequence: MKERFMSKFAIVFPGQGSQAVGMLADLAEQYAVVKQTFAEASEVLGYDLWALVQDGPVEDLNQTFRTQPALLAASVAIWRVWQQLGLEQPAVLAGHSLGEYSALVCAGVIDFKQAIKLVELRGQLMQQAVPAGTGAMYAIIGLEDEAIAKACADAAQGEVVSPVNFNSPGQVVIAGQKDAVERAGVLCKEAGAKRALPLPVSVPSHCALMKPAADELAKTLAELEFNAPQIPVINNVDVVAETDPVKIKDALIRQLYSPVRWTECVEQMSAQGVEKLIEMGPGKVLTGLTKRIVKTLEGVAVNDVASLDAVK
- soluble on expression in E. coli: soluble
